Measurements: publication PMC7498358

Biological target: YB-1 CSDex (Homo sapiens, UniProt P67809 51-140)
Assay: NMR HSQC titration

Sequence of YB-1 CSDex (P67809 51-140): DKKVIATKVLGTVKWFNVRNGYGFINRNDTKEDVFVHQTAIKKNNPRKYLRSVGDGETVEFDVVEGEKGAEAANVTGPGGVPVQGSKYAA

B1: CACC dsDNA (dsDNA)
DNA 1: TCAACACCTC
DNA 2: GAGGTGTTGA
B1: binds.
